According to patent US20260216242A1 (ALMAC DISCOVERY, published 2026):

What was measured:
ALPI His homodimer = biological target: T1, ALPI His homodimer (human, UniProt P09923 20-503); assay: ELISA, antigen coated
T1 construct: Whole entry with His tag; used in ELISA and BLI; also called hALPI
T1 sequence: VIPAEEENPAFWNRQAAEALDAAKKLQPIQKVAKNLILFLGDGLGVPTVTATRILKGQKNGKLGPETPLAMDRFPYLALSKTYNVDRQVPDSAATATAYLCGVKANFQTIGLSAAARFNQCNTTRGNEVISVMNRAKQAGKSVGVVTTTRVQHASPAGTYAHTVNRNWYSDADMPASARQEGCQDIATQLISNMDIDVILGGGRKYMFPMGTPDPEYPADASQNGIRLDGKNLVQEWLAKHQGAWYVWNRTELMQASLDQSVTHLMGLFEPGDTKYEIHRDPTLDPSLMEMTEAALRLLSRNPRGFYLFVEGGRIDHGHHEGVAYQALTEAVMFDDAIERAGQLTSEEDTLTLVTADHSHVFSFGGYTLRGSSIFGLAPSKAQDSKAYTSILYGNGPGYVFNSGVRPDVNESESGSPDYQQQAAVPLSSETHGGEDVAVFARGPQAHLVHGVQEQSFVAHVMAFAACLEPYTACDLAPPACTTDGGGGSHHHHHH
Excerpt: ELISA was used to test the binding and specificity of the VHHs. […] Anti-Llama—HRP antibody was used for detection.

[1] = biological target: T2, Human ALPL (leucine zipper) (human); assay: BLI, antigen immobilised
T2 construct: Whole entry: fused with a cysteine stabilised leucine zipper and His tag; also called hALPL
T2 chain: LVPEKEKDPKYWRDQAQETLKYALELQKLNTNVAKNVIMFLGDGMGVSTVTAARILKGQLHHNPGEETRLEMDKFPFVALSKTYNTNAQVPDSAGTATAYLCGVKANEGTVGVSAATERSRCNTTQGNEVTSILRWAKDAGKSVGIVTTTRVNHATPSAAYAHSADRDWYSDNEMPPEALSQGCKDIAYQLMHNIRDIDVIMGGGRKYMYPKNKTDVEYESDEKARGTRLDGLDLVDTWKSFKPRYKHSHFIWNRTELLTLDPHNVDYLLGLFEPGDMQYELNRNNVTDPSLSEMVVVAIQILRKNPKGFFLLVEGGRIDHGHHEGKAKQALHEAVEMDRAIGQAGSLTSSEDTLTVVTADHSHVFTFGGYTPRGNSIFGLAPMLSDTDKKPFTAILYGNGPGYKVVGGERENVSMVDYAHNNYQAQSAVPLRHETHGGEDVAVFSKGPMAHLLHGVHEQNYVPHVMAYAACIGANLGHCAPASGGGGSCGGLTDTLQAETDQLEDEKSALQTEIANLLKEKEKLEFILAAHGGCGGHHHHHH
Experimental: (§1) Binding kinetics were determined using the Biolayer Interferometry (BLI) Octet K2 system (Sartorius). […] All assays were conducted in PBS with a plate temperature of 25° C. Ka (M⁻¹s⁻¹), Kd (s⁻¹) and KD (nM) values were determined using Octet Data Analysis High Throughput software (ForteBio) for Biolayer Interferometry.

[2] = biological target: T3, Human ALPP (leucine zipper) (human); assay: BLI, antigen immobilised
T3 construct: Whole entry: ALPP fused with a cysteine stabilised leucine zipper and His tag; also called hALPP
T3 chain: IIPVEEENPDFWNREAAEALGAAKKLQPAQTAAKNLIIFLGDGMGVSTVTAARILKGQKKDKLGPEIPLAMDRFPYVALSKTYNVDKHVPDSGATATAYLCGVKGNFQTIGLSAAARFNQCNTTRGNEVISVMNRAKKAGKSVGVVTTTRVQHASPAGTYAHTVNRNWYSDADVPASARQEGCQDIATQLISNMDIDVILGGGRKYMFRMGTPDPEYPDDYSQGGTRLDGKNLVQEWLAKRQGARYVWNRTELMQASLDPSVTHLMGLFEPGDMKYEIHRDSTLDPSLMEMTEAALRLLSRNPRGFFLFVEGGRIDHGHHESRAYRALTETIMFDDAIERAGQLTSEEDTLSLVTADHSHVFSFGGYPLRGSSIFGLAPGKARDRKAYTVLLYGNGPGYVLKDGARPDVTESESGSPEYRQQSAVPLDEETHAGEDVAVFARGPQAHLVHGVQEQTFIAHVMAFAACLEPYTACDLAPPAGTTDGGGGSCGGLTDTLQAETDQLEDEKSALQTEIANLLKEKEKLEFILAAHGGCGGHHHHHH
Experimental: as §1

[3] = biological target: T4, Human ALPP (leucine zipper) (human); assay: BLI, KD app (antigen immobilised on AR2G sensor)
T4 construct: Soluble human ALPP fused to a disulphide stabilised leucine zipper and a His tag; The whole entry is the construct; also called hALPP; PLAP
T4 chain: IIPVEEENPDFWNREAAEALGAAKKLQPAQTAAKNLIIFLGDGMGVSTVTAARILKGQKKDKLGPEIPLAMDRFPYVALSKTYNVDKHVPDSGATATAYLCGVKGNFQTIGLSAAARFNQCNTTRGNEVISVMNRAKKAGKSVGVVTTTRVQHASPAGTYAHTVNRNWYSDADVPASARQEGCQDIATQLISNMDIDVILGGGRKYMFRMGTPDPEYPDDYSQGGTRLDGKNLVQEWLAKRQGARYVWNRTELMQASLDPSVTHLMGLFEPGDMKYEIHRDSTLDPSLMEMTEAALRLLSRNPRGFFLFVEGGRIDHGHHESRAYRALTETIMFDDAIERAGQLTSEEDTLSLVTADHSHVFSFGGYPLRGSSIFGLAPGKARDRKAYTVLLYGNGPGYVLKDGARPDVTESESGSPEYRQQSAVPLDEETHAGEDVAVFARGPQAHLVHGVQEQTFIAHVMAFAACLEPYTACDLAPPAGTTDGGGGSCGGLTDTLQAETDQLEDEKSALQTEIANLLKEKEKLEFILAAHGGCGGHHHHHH
Experimental: Binding kinetics were determined using the Biolayer Interferometry (BLI) Octet K2 or R4 system (Sartorius). […] For KD apparent measurements, the ALPP proteins were immobilised in sodium acetate pH5 buffer to AR2G sensors using amine coupling. To measure 1:1 interactions, AHC biosensors were used to immobilise Fc-fused proteins. All assays were conducted in HBS-EP with a plate temperature of 25° C. Ka (M⁻¹s⁻¹), Kd (s⁻¹) and KD (nM) values were determined using Octet Data Analysis High Throughput software (Sartorius) for Biolayer Interferometry.

B1: C06 (VHH, not shown: small tags and cut ends)
VHH: QVQLVESGGGLVQPGGSLRVSCAASGPSLSNYAMGWFRQAPGKEREFVAGISWGGGRTSYTDSVKGRFTISRDNAKNTVYLQMNNLKPEDTGVYYCAGRYGRGRNVEYEYDYWGQGTQVTVSS
binding result (ALPI His homodimer): no binding (tested: 500 ng VHH)
binding result [1]: no binding
Kd [2]: < 0.01 nM
koff [2]: < 1e-07 s⁻¹
kon [2]: 368000 M⁻¹ s⁻¹

B2: B11 (VHH, not shown: small tags and cut ends)
VHH: QVHLVESGGGSVQAGGSLRLSCAASGPSLSNYAMGWFRQAPGKEREFVAGISWGGGRTSYTDSVKGRFTISRDNAKNTVYLQMNNLKPEDTGVYYCAGRYGRGRNVEYEYDYWGQGTQVTVSS
binding result (ALPI His homodimer): no binding (tested: 500 ng VHH)
binding result [1]: no binding
kon [2]: 213000 M⁻¹ s⁻¹

B3: D08 (VHH, not shown: small tags and cut ends)
VHH: QVHLVESGGGSVQAGGSLRLSCAASGPSLSNYAMGWFRQAPGKEREFVAGISWGGGRTSYTDSVKGRFTISRDNAKNTVYLQMNNLKPEDTGVYYCAGRYGRGRNVEYEYDYWGQGTKVTVSS
binding result (ALPI His homodimer): no binding (tested: 500 ng VHH)
binding result [1]: no binding
Kd [2]: < 0.01 nM
koff [2]: < 1e-07 s⁻¹
kon [2]: 175000 M⁻¹ s⁻¹

B4: D11 (VHH, not shown: small tags and cut ends)
VHH: QVQLVESGGGSVQAGGSLRLSCAASGPSLSNYAMGWFRQAPGKEREFVAGISWGGGRTSYTDSVKGRFTISRDNAKNTVYLQMNNLKPEDTGVYYCAGRYGRGRNVEYEYDYWGQGTMVTVSS
binding result (ALPI His homodimer): no binding (tested: 500 ng VHH)
binding result [1]: no binding
Kd [2]: < 0.01 nM
koff [2]: < 1e-07 s⁻¹
kon [2]: 97700 M⁻¹ s⁻¹

B5: A08 (VHH, not shown: small tags and cut ends)
VHH: QVQLVESGGGLVQAGESLRLACAASGTIFSGNAVGWYRQAPEKQREWVSSITDYGDTDYAEAVKGRFTISRDNAKNTVYLQMNSLKPEDTAVYYCYVYQRGESEEYWGQGTKVTVSS
binding result (ALPI His homodimer): no binding (tested: 500 ng VHH)
binding result [1]: no binding
Kd [2]: 0.03 nM
koff [2]: 1.2e-05 s⁻¹
kon [2]: 429000 M⁻¹ s⁻¹

B6: A06 E06-hFc (S239C + S442C), mixed linkers (A06 - [G4S]1, E06 - [G4S]3) (Fc fusion)
chain 1: QVHLVESGGGLVQAGGSLRLSCAASGRTFLSMGWFRQAPGKEREFVAAISWTGGSTGYADSVKGRFTISRESDKETMYLQMNSLKPEDTAVYYCAARGDVYYGGDDATRYKYWGQGTQVTVSSGGGGSEPKSSDKTHTCPPCPAPELLGGPCVFLFPPKPKDTLMISRTPEVTCVVVDVSHEDPEVKFNWYVDGVEVHNAKTKPREEQYNSTYRVVSVLTVLHQDWLNGKEYKCKVSNKALPAPIEKTISKAKGQPREPQVYTLPPSRDELTKNQVSLYCLVKGFYPSDIAVEWESNGQPENNYKTTPPVLDSDGSFFLYSKLTVDKSRWQQGNVFSCSVMHEALHNHYTQKSLCLSPGK
chain 2: QVHLVESGGGLVQAGGSLRLSCAASRRSFSEYAMGWFRQAPGKEREFVAAIGWSGVIEYADSVKGRFTISRDNAKDTVYLQMNSLKPEDTAVYYCAAGLGIRVVSQTPAYWGQGTQVTVSSGGGGSGGGGSGGGGSEPKSSDKTHTCPPCPAPELLGGPCVFLFPPKPKDTLMISRTPEVTCVVVDVSHEDPEVKFNWYVDGVEVHNAKTKPREEQYNSTYRVVSVLTVLHQDWLNGKEYKCKVSNKALPAPIEKTISKAKGQPREPQVYTLPPSRDELTKNQVSLTCLVKGFYPSDIAVEWESNGQPENNYKTTPPVLDSDGSFFLTSKLTVDKSRWQQGNVFSCSVMHEALHNHYTQKSLCLSPGK
notes: Biparatopic heterodimer; also called #706
Kd [3]: < 0.01 nM
kon [3]: 429000 M⁻¹ s⁻¹

B7: A06 E10-hFc (S239C + S442C), mixed linkers (A06 - [G4S]1, E10 - [G4S]3) (Fc fusion)
chain 1: QVHLVESGGGLVQAGGSLRLSCAASGRTFLSMGWFRQAPGKEREFVAAISWTGGSTGYADSVKGRFTISRESDKETMYLQMNSLKPEDTAVYYCAARGDVYYGGDDATRYKYWGQGTQVTVSSGGGGSEPKSSDKTHTCPPCPAPELLGGPCVFLFPPKPKDTLMISRTPEVTCVVVDVSHEDPEVKFNWYVDGVEVHNAKTKPREEQYNSTYRVVSVLTVLHQDWLNGKEYKCKVSNKALPAPIEKTISKAKGQPREPQVYTLPPSRDELTKNQVSLYCLVKGFYPSDIAVEWESNGQPENNYKTTPPVLDSDGSFFLYSKLTVDKSRWQQGNVFSCSVMHEALHNHYTQKSLCLSPGK
chain 2: QVQLVESGGGLVQAGGSLRLSCAVSGRALSDYNIGWFRQAPGKEREFVARKTWDGSSTRYDDSVKGRFTVSIEDAKNTAYLQMSSLKTEDTAVYYCAAGRYSRARGWEYDYWGQGTQVTVSSGGGGSGGGGSGGGGSEPKSSDKTHTCPPCPAPELLGGPCVFLFPPKPKDTLMISRTPEVTCVVVDVSHEDPEVKFNWYVDGVEVHNAKTKPREEQYNSTYRVVSVLTVLHQDWLNGKEYKCKVSNKALPAPIEKTISKAKGQPREPQVYTLPPSRDELTKNQVSLTCLVKGFYPSDIAVEWESNGQPENNYKTTPPVLDSDGSFFLTSKLTVDKSRWQQGNVFSCSVMHEALHNHYTQKSLCLSPGK
notes: Biparatopic heterodimer; also called #707
kon [3]: 421000 M⁻¹ s⁻¹

B8: A06 F05-hFc (S239C + S442C), mixed linkers (A06 - [G4S]1, F05 - [G4S]3) (Fc fusion)
chain 1: QVHLVESGGGLVQAGGSLRLSCAASGRTFLSMGWFRQAPGKEREFVAAISWTGGSTGYADSVKGRFTISRESDKETMYLQMNSLKPEDTAVYYCAARGDVYYGGDDATRYKYWGQGTQVTVSSGGGGSEPKSSDKTHTCPPCPAPELLGGPCVFLFPPKPKDTLMISRTPEVTCVVVDVSHEDPEVKFNWYVDGVEVHNAKTKPREEQYNSTYRVVSVLTVLHQDWLNGKEYKCKVSNKALPAPIEKTISKAKGQPREPQVYTLPPSRDELTKNQVSLYCLVKGFYPSDIAVEWESNGQPENNYKTTPPVLDSDGSFFLYSKLTVDKSRWQQGNVFSCSVMHEALHNHYTQKSLCLSPGK
chain 2: QVQLVESGGGLVQAGGSLRLSCAASGRAFGDYNIGWFRQAPGKEREFVARRTWDGSSTRYDDSVKGRFTVSIDNAKNTAYLQMNSLKTEDTAVYYCAAGRYSRVRGWEYDYWGQGTQVTVSSGGGGSGGGGSGGGGSEPKSSDKTHTCPPCPAPELLGGPCVFLFPPKPKDTLMISRTPEVTCVVVDVSHEDPEVKFNWYVDGVEVHNAKTKPREEQYNSTYRVVSVLTVLHQDWLNGKEYKCKVSNKALPAPIEKTISKAKGQPREPQVYTLPPSRDELTKNQVSLTCLVKGFYPSDIAVEWESNGQPENNYKTTPPVLDSDGSFFLTSKLTVDKSRWQQGNVFSCSVMHEALHNHYTQKSLCLSPGK
notes: Biparatopic heterodimer; also called #708
kon [3]: 426000 M⁻¹ s⁻¹

B9: C05 (VHH, not shown: small tags and cut ends)
VHH: QVQLVESGGGLVQAGGSLRLSCAASRRSFSEYAMGWFRQAPGKEREFVAAIGWSGVIEYADSVKGRFTISRDNAKDTVYLQMNSLKPEDTAVYYCAAGLGIRVVSQTPAYWGQGTQVTVSS
binding result (ALPI His homodimer): no binding (tested: 500 ng VHH)
binding result [1]: no binding
Kd [2]: < 0.01 nM
koff [2]: < 1e-07 s⁻¹
kon [2]: 394000 M⁻¹ s⁻¹
